This is an account of results in patent US20230105029A1 (CHIA TAI TIANQING PHARMACEUTICAL GROUP, published 2023).

The target of test [1] is T1, recombinant human IL4Rα-his protein (in house made) (human, UniProt P24394 26-232, limits assumed).
T1 construct: also called Human IL4Ra-his
Kind of test: SPR (Biacore), antibody captured, IL4Rα-his flowed. In general terms: SPR reads the build-up and loss of mass on a sensor chip optically.

Test [2] concerns the target T1, recombinant human IL4Rα-his protein (in …). The test is described as follows: SPR (Biacore), antibody captured, IL4Rα-his flowed. This is another data set of the same source.

Like-named read-outs stand apart in the source and are kept apart here.

B1: huC2C1A1A1-V4 (antibody, human IgG4 S228P, kappa, V domains shown)
VH: EVQLVESGGGLVQPGGSLRLSCAASGFTFSTYGMSWVRQAPGKGLVWVSTINSNGGSTSYPDSVKGRFTISRDNAKNTLYLQMNSLRAEDTAVYYCARFFRFRNAMDYWGQGTLVTVSS
VL: DIQMTQSPSSLSASVGDRVTITCRTSENIYSYLAWYQQKPGKAPKFLIYNAKTLAEGVPSRFSGSGSGTDFTLTISSLQPEDFATYYCQHYYGPPTWTFGQGTKVEIKR
notes: Humanized, human IgG4/kappa
Usually Kd stands for the concentration at which binding is half-saturated. In general, koff refers to the rate constant with which the complex falls apart. In general, kon refers to a measure of how fast the partners come together. In the case of B1, in test [1], the Dissociation % is 0.2%, the “End (RU)” value came to 49.6 RU, the dissociation constant (Kd) is less than 0.022 nM and the “Start (RU)” value was found to be 49.5 RU. In addition, in test [1], the koff is less than 1e-05 s⁻¹ and the association rate constant (kon) stood at 455000 M⁻¹ s⁻¹.

B2: huC2C1A1A1-V6 (antibody, human IgG4 S228P, kappa, V domains shown)
VH: EVQLVESGGGLVQPGGSLRLSCAASGFTFSTYGMSWVRQSPDKRLEWVSTINSNGGSTSYPDSVKGRFTISRDNAKNTLYLQMRSLRAEDTAVYYCARFFRFRNAMDYWGQGTLVTVSS
VL: DIQMTQSPSSLSASVGQRVTITCRTSENIYSYLAWYQQKQGKPPRFLIYNAKTLAEGVPSRFSGSGSGTEFTLTITSLQAEDFGVYYCQHYYGPPTWTFGPGTKLEIKR
notes: Humanized, human IgG4/kappa
With B2, in test [1], the Dissociation % was -0.59%, the “End (RU)” value stood at 50.6 RU, the Kd is less than 0.0261 nM and the “Start (RU)” value came to 50.9 RU. Further, in test [1], the koff is less than 1e-05 s⁻¹ and the on-rate (kon) came out at 383000 M⁻¹ s⁻¹.

B3: huC2C1A1A1-V10 (antibody, human IgG4 S228P, kappa, V domains shown)
VH: EVQLVESGGGLVQPGGSLRLSCAASGFTFSTYGMSWVRQAPGKGLVLVATINSNGGSTSYPDSVKGRFTISRDNAKNTLYLQMNSLRAEDTAVYYCARFFRFRNAMDYWGQGTLVTVSS
VL: DIQMTQSPSSLSASVGQRVTITCRTSENIYSYLAWYQQKQGKPPRFLIYNAKTLAEGVPSRFSGSGSGTEFTLTITSLQAEDFGVYYCQHYYGPPTWTFGPGTKLEIKR
notes: Humanized, human IgG4/kappa
B3: in test [1], the Dissociation % is -1.54%, the “End (RU)” value came out at 63.9 RU, the dissociation constant (Kd) was less than 0.0304 nM and the “Start (RU)” value turned out to be 64.9 RU. Moreover, in test [1], the koff is less than 1e-05 s⁻¹ and the kon worked out at 329000 M⁻¹ s⁻¹.

B4: huC2C1A1A1-V8 (antibody, human IgG4 S228P, kappa, V domains shown)
VH: EVQLVESGGGLVQPGGSLRLSCAASGFTFSTYGMSWVRQSPDKRLEWVSTINSNGGSTSYPDSVKGRFTISRDNAKNTLYLQMRSLRAEDTAVYYCARFFRFRNAMDYWGQGTLVTVSS
VL: DIQMTQSPSSLSASVGDRVTITCRTSENIYSYLAWYQQKPGKAPKFLIYNAKTLAEGVPSRFSGSGSGTDFTLTISSLQPEDFATYYCQHYYGPPTWTFGQGTKVEIKR
notes: Humanized, human IgG4/kappa
Turning to B4, in test [1], the Dissociation % is -1.23%, the “End (RU)” value is 64.4 RU, the Kd was less than 0.036 nM and the “Start (RU)” value is 65.2 RU. Besides, in test [1], the koff is less than 1e-05 s⁻¹ and the on-rate constant (kon) is 278000 M⁻¹ s⁻¹.

B5: huC2C1A1A1-V5 (antibody, human IgG4 S228P, kappa, V domains shown)
VH: EVQLVESGGGLVQPGGSLRLSCAASGFTFSTYGMSWVRQSPDKRLEWVSTINSNGGSTSYPDSVKGRFTISRDNAKNTLYLQMRSLRAEDTAVYYCARFFRFRNAMDYWGQGTLVTVSS
VL: DIQMTQSPSSLSASVGDRVTITCRTSENIYSYLAWYQQKPGKAPKLLIYNAKTLAEGVPSRFSGSGSGTDFTLTISSLQPEDFATYYCQHYYGPPTWTFGQGTKVEIKR
notes: Humanized, human IgG4/kappa
With B5, in test [1], the Dissociation % was -2.28%, the “End (RU)” value stood at 64.3 RU, the dissociation constant (Kd) was 0.0283 nM and the “Start (RU)” value is 65.8 RU. Further, in test [1], the dissociation rate constant (koff) stood at 7.5e-05 s⁻¹ and the kon worked out at 2.65e+06 M⁻¹ s⁻¹.

B6: huC2C1A1A1-V2 (antibody, human IgG4 S228P, kappa, V domains shown)
VH: EVQLVESGGGLVQPGGSLRLSCAASGFTFSTYGMSWVRQAPGKGLVWVSTINSNGGSTSYPDSVKGRFTISRDNAKNTLYLQMNSLRAEDTAVYYCARFFRFRNAMDYWGQGTLVTVSS
VL: DIQMTQSPSSLSASVGQRVTITCRTSENIYSYLAWYQQKQGKPPRFLIYNAKTLAEGVPSRFSGSGSGTEFTLTITSLQAEDFGVYYCQHYYGPPTWTFGPGTKLEIKR
notes: Humanized, human IgG4/kappa
B6: in test [1], the Dissociation % was -0.2%, the “End (RU)” value came to 50.3 RU, the Kd was less than 0.0442 nM and the “Start (RU)” value worked out at 50.4 RU. In test [1], the off-rate (koff) was less than 1e-05 s⁻¹ and the on-rate (kon) came to 226000 M⁻¹ s⁻¹.

B7: huC2C1A1A1-V16 (antibody, human IgG4 S228P, kappa, V domains shown)
VH: EVQLVESGGGLVQPGGSLRLSCAASGFTFSTYGMSWVRQAPGKGLVWVATINSNGGSTSYPDSVKGRFTISRDNAKNTLYLQMNSLRAEDTAVYYCARFFRFRNAMDYWGQGTLVTVSS
VL: DIQMTQSPSSLSASVGDRVTITCRTSENIYSYLAWYQQKPGKAPKFLIYNAKTLAEGVPSRFSGSGSGTDFTLTISSLQPEDFATYYCQHYYGPPTWTFGQGTKVEIKR
notes: Humanized, human IgG4/kappa
In the case of B7, in test [1], the Dissociation % is -0.42%, the “End (RU)” value came to 47.1 RU, the equilibrium dissociation constant (Kd) is less than 0.0338 nM and the “Start (RU)” value was determined as 47.3 RU. Also, in test [1], the koff was less than 1e-05 s⁻¹ and the kon was determined as 296000 M⁻¹ s⁻¹.

B8: huC2C1A1A1-V13 (antibody, human IgG4 S228P, kappa, V domains shown)
VH: EVQLVESGGGLVQPGGSLRLSCAASGFTFSTYGMSWVRQAPGKGLVWVATINSNGGSTSYPDSVKGRFTISRDNAKNTLYLQMNSLRAEDTAVYYCARFFRFRNAMDYWGQGTLVTVSS
VL: DIQMTQSPSSLSASVGDRVTITCRTSENIYSYLAWYQQKPGKAPKLLIYNAKTLAEGVPSRFSGSGSGTDFTLTISSLQPEDFATYYCQHYYGPPTWTFGQGTKVEIKR
notes: Humanized, human IgG4/kappa
As to B8, in test [1], the Dissociation % was determined as 0.82%, the “End (RU)” value was determined as 36.7 RU, the Kd was less than 0.0838 nM and the “Start (RU)” value worked out at 36.4 RU. In test [1], the koff was less than 1e-05 s⁻¹ and the kon was determined as 119000 M⁻¹ s⁻¹.

B9: huC2C1A1A1-V3 (antibody, human IgG4, V domains shown)
VH: EVQLVESGGGLVQPGGSLRLSCAASGFTFSTYGMSWVRQAPGKGLVWVSTINSNGGSTSYPDSVKGRFTISRDNAKNTLYLQMNSLRAEDTAVYYCARFFRFRNAMDYWGQGTLVTVSS
VL: DIQMTQSPSSLSASVGDRVTITCRTSENIYSYLAWYQQKPGKAPKFLVYNAKTLAEGVPSRFSGSGSGTDFTLTISSLQPEDFATYYCQHYYGPPTWTFGQGTKVEIKR
notes: Humanized, human IgG4/kappa
As to B9, in test [1], the Dissociation % is -0.62%, the “End (RU)” value was found to be 48.3 RU, the dissociation constant Kd was less than 0.0389 nM and the “Start (RU)” value came to 48.6 RU. For the same molecule, in test [1], the koff was less than 1e-05 s⁻¹ and the on-rate (kon) amounted to 257000 M⁻¹ s⁻¹.

B10: huC2C1A1A1-V7 (antibody, human IgG4, V domains shown)
VH: EVQLVESGGGLVQPGGSLRLSCAASGFTFSTYGMSWVRQSPDKRLEWVSTINSNGGSTSYPDSVKGRFTISRDNAKNTLYLQMRSLRAEDTAVYYCARFFRFRNAMDYWGQGTLVTVSS
VL: DIQMTQSPSSLSASVGDRVTITCRTSENIYSYLAWYQQKPGKAPKFLVYNAKTLAEGVPSRFSGSGSGTDFTLTISSLQPEDFATYYCQHYYGPPTWTFGQGTKVEIKR
notes: Humanized, human IgG4/kappa
As for B10, in test [1], the Dissociation % is -0.66%, the “End (RU)” value was 60.1 RU, the dissociation constant Kd was less than 0.038 nM and the “Start (RU)” value worked out at 60.5 RU. In addition, in test [1], the koff was less than 1e-05 s⁻¹ and the on-rate (kon) amounted to 263000 M⁻¹ s⁻¹.

B11: huC2C1A1A1-V11 (antibody, human IgG4, V domains shown)
VH: EVQLVESGGGLVQPGGSLRLSCAASGFTFSTYGMSWVRQAPGKGLVLVATINSNGGSTSYPDSVKGRFTISRDNAKNTLYLQMNSLRAEDTAVYYCARFFRFRNAMDYWGQGTLVTVSS
VL: DIQMTQSPSSLSASVGDRVTITCRTSENIYSYLAWYQQKPGKAPKFLVYNAKTLAEGVPSRFSGSGSGTDFTLTISSLQPEDFATYYCQHYYGPPTWTFGQGTKVEIKR
notes: Humanized, human IgG4/kappa
With B11, in test [1], the Dissociation % is -0.92%, the “End (RU)” value worked out at 53.7 RU, the equilibrium dissociation constant (Kd) was less than 0.0303 nM and the “Start (RU)” value turned out to be 54.2 RU. In addition, in test [1], the koff is less than 1e-05 s⁻¹ and the kon is 330000 M⁻¹ s⁻¹.

B12: huC2C1A1A1-V1 (antibody, human IgG4 S228P, kappa, V domains shown)
VH: EVQLVESGGGLVQPGGSLRLSCAASGFTFSTYGMSWVRQAPGKGLVWVSTINSNGGSTSYPDSVKGRFTISRDNAKNTLYLQMNSLRAEDTAVYYCARFFRFRNAMDYWGQGTLVTVSS
VL: DIQMTQSPSSLSASVGDRVTITCRTSENIYSYLAWYQQKPGKAPKLLIYNAKTLAEGVPSRFSGSGSGTDFTLTISSLQPEDFATYYCQHYYGPPTWTFGQGTKVEIKR
notes: Humanized, human IgG4/kappa
With B12, in test [1], the Dissociation % was 0.23%, the “End (RU)” value is 44 RU, the equilibrium dissociation constant (Kd) is less than 0.0773 nM and the “Start (RU)” value stood at 43.9 RU. For the same molecule, in test [1], the koff was less than 1e-05 s⁻¹ and the on-rate constant (kon) was found to be 129000 M⁻¹ s⁻¹.

B13: huC2C1A1A1-V9 (antibody, human IgG4 S228P, kappa, V domains shown)
VH: EVQLVESGGGLVQPGGSLRLSCAASGFTFSTYGMSWVRQAPGKGLVLVATINSNGGSTSYPDSVKGRFTISRDNAKNTLYLQMNSLRAEDTAVYYCARFFRFRNAMDYWGQGTLVTVSS
VL: DIQMTQSPSSLSASVGDRVTITCRTSENIYSYLAWYQQKPGKAPKLLIYNAKTLAEGVPSRFSGSGSGTDFTLTISSLQPEDFATYYCQHYYGPPTWTFGQGTKVEIKR
notes: Humanized, human IgG4/kappa
B13: in test [1], the Dissociation % is -0.24%, the “End (RU)” value amounted to 41.1 RU, the dissociation constant (Kd) was less than 0.0507 nM and the “Start (RU)” value worked out at 41.2 RU. In test [1], the koff was less than 1e-05 s⁻¹ and the on-rate constant (kon) was 197000 M⁻¹ s⁻¹.

B14: huC2C1A1A1-V12 (antibody, human IgG4 S228P, kappa, V domains shown)
VH: EVQLVESGGGLVQPGGSLRLSCAASGFTFSTYGMSWVRQAPGKGLVLVATINSNGGSTSYPDSVKGRFTISRDNAKNTLYLQMNSLRAEDTAVYYCARFFRFRNAMDYWGQGTLVTVSS
VL: DIQMTQSPSSLSASVGDRVTITCRTSENIYSYLAWYQQKPGKAPKFLIYNAKTLAEGVPSRFSGSGSGTDFTLTISSLQPEDFATYYCQHYYGPPTWTFGQGTKVEIKR
notes: Humanized, human IgG4/kappa
Regarding B14, in test [1], the Dissociation % is -1.88%, the “End (RU)” value is 52.1 RU, the Kd worked out at 0.047 nM and the “Start (RU)” value is 53.1 RU. In test [1], the koff amounted to 1.42e-05 s⁻¹ and the kon is 302000 M⁻¹ s⁻¹.

B15: huB8G11F2B7G5E8-V1 (antibody, human IgG4 S228P, kappa, V domains shown)
VH: EVQLVQSGAEVKKPGATVKISCKASGFNIKDTYMHWVKQAPGKGLEWVGRIDPTNGYTIYASKFQGKATITADTSSNTAYMELSSLRSEDTAVYHCVSRRPWFAYWGQGTLVTVSS
VL: DIVMTQTPLSLSVTPGQPASISCRSSQSIVHSNGNTYLEWYLQKPGQSPQLLIYKVTNRFSGVPDRFSGSGSGTDFTLKISRVEAEDVGVYYCFQGSHVPYTFGQGTKLEIKR
notes: Humanized, human IgG4/kappa; also called huBSG11F2B7G5E8-V1
Take B15: in test [2], the dissociation constant Kd came to 3.73 nM, the off-rate (koff) came out at 0.00208 s⁻¹ and the kon was 557000 M⁻¹ s⁻¹.
